The subject of test [1] is ER dependent promoter reporter in T47D cells. In words: ER dependent luciferase reporter assay in transfected T47D cells. Particulars: hCARM1 co-transfected with GRIP-1 and ER, compared to GRIP-1 and ER alone. In kind it is cell-based, human. How it is done: Transfection protocol: Cells were plated in 12 well-dishes and allowed to adhere and grow overnight such that they were 80% confluent at the time of transfection. Tranfections were performed in triplicate using Lipofectamine 2000 (Gibco) and OptiMEM media. Total amount of DNA transfected was held constant within experiments. Six hrs. post transfection the Lipofectamine-DNA mix was removed and replaced with fresh media containing 10% serum. Hormone (dihydrotestosterone or estradiol) was added at this time and reporter activation measured after 24 hr.
Mouse CARM1 has been implicated as a coactivator of the androgen and estrogen receptor mediated signaling pathways along with the well-known steroid coactivator GRIP-1. The contribution, if any, of the human clone to these pathways was investigated. […] Thus, antagonizing endogenous CARM1 is deleterious to hormone dependent activation by endogeous ER.
In general terms: A reporter such as luciferase makes a cellular process visible.

Another test has as its system Histone H3. The experiment in a line: Methylation assay: methylating activity of purified hCARM1. In kind it is biochemical. Particulars: increasing amounts of purified enzyme, constant recombinant Histone H3 (FIG. 2). How it is done:
Methylation assay protocol: Reactions were performed in IX methylation buffer containing 20 mM Tris.HCl, pH 8.0, 200 mM NaCl and 0.4 mM EDTA. Reactions were assembled with 2.5 ug of Histone H3 and increasing amounts of hCARM1 (0.25 ug, 0.5 ug, 1.25 ug, 2.5 ug, 3.75 ug, 5 ug, or 7.5 ug). A mock reaction where hCARM1 was omitted was used as the negative control. Reactions were incubated at 30° C. for 1 hr. prior to loading on a 10-20% gradient SDS-PAGE. The gel was fixed, dried and exposed to film.
A methylation reaction was performed in order to evaluate whether the cloned full-length hCARM1 had methylating activity. Mouse CARM1 has been previously shown to specifically methylate Histone H3 in vitro and in vivo.

B1: hCARM1: cloned full-length human CARM1, produced in and purified from baculovirus infected insect cells; transfected as cDNA in cell assays (protein, UniProt Q86X55 1-608, looked up)
chain: MAAAAAAVGPGAGGAGSAVPGGAGPCATVSVFPGARLLTIGDANGEIQRHAEQQALRLEVRAGPDSAGIALYSHEDVCVFKCSVSRETECSRVGKQSFIITLGCNSVLIQFATPNDFCSFYNILKTCRGHTLERSVFSERTEESSAVQYFQFYGYLSQQQNMMQDYVRTGTYQRAILQNHTDFKDKIVLDVGCGSGILSFFAAQAGARKIYAVEASTMAQHAEVLVKSNNLTDRIVVIPGKVEEVSLPEQVDIIISEPMGYMLFNERMLESYLHAKKYLKPSGNMFPTIGDVHLAPFTDEQLYMEQFTKANFWYQPSFHGVDLSALRGAAVDEYFRQPVVDTFDIRILMAKSVKYTVNFLEAKEGDLHRIEIPFKFHMLHSGLVHGLAFWFDVAFIGSIMTVWLSTAPTEPLTHWYQVRCLFQSPLFAKAGDTLSGTCLLIANKRQSYDISIVAQVDQTGSKSSNLLDLKNPFFRYTGTTPSPPPGSHYTSPSENMWNTGSTYNLSSGMAVAGMPTAYDLSSVIASGSSVGHNNLIPLANTGIVNHTHSRMGSIMSTGIVQGSSGAQGSGGGSTSAHYAVNSQFTMGGPAISMASPMSIPTNTMHYGS
modifications: full-length
notes: cloned full-length human CARM1, produced in and purified from baculovirus infected insect cells; transfected as cDNA in cell assays
B1: in test [1], the “estradiol mediated induction of ER dependent luciferase reporter” value is reported as “concentration dependent increase”. Moreover, in the test on Histone H3, the “methylation of Histone H3 by hCARM1” value is recorded as “methylates Histone H3 efficiently”.

Source of the values: US20050196753A1, “Human coactivator-associated arginine methyltransferase 1 (hCARM1)” (priority 2002, published 2005).
